# Assays:
# Test in all cases: BLI
# [1] = molecular target: biotinylated FXR NES peptide (amino acids 401–454), T442 phosphorylated (human)
# [2] = molecular target: biotinylated FXR NES peptide (amino acids 401–454), T442 non-phosphorylated (human)
# [3] = molecular target: biotinylated FXR NLS peptide (amino acids 191–230), K217 acetylated (human)
# [4] = molecular target: biotinylated FXR NLS peptide (amino acids 191–230), K217 non-acetylated (human)
Substance,Kd [1],Kd [2],Kd [3],Kd [4]
CRM1 protein used in the BLI assay (from UniProt O14980 1-1071) (natural protein),181 nM,90.1 nM,,
KPNA3 protein used in the BLI assay (from UniProt O00505 1-521) (natural protein),,,51 nM,17.4 nM
